Assay results from patent US20230265208A1 (Dana-Farber, published 2023).
Substitutions are numbered along the chain they refer to.

T1: WT p58/p62 heterodimer (human, UniProt P15941 1036-1097, limits assumed)
T1 construct: domain: 62 amino acid region (p62) of the SEA domain; Construct limits and tags are not described; also called p62/p58 heterodimer; WT protein
T1 sequence 1: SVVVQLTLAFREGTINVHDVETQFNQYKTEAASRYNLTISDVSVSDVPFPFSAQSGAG
T1 sequence 2: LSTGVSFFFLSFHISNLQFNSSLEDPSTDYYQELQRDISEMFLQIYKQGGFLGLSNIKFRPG

T2: MUC1-ECD (human, UniProt P15941 1098-1155)
T2 construct: also called Ag MUC1-ECD; Antigen MUC1-ECD
T2 sequence: T1 sequence 1

B1: GO-702m (antibody, V domains shown)
VH: QVQLQQSGAELMKPGASVKISCKAIGFTFNYFWIEWVKQRPGHGLEWIGEILPGTGSTNYNEKFKGKAIFTADTSSNTAYMQLRSLTSEDSAVYYCVRYDYTSSMDYWGQGTSVTVSS
VL: DIVLTQSPGSLAVSLGQSVTISCRASESVQYSGTSLMHWYQQKPGQPPKLLIYGASNVETGVPARFSGSGSGTDFSLNIHPVEEDDIAMYFCQQNWKVPWTFGGGTKLEIK
notes: Mouse monoclonal antibody, detected with anti-mouse IgG kappa
B2: GO-702h wild-type (antibody)
heavy: not shown
light: EIVLTQSPATLSLSPGERATLSCRASESVQYSGTSLMHWYQQKPGQAPRLLIYGASNVETGIPARFSGSGSGTDFTLTISSLEPEDFAVYYCQQNWKVPWTFGQGTKVEIKRTVAAPSVFIFPPSDEQLKSGTASVVCLLNNFYPREAKVQWKVDNALQSGNSQESVTEQDSKDSTYSLSSTLTLSKADYEKHKVYACEVTHQGLSSPVTKSFNRGEC
notes: copies: 2 + 2
B3: VH5 + VL2 (antibody, V domains shown)
VH: EVQLVQSGAEVKKPGESLKISCKGSGYAFSNFWMNWVRQMPGKGLEWMGQIYPGDGDTNYNGKFKGQVTISADKSISTAYLQWSSLKASDTAMYYCARSYYRSAWFAYWGQGTLVTVSL
VL: EIVMTQSPATLSVSPGERATLSCRASQSIGTSIHWYQQKPGQAPRLLIYYASESISGIPARFSGSGSGTEFTLTISSLQSEDFAVYYCQQSNNWPLTFGGGTKVEIK
B4: VH2 + VL3 (antibody, V domains shown)
VH: QVQLVQSGAEVKKPGASVKVSCKASGYAFSNFWMNWVRQAPGQGLEWMGQIYPGDGDTNYNGKFKGRVTMTRDTSTSTVYMELSSLRSEDTAVYYCARSYYRSAWFAYWGQGTLVTVSS
VL: B3 VL with M4L, V13L, E70D, Q79E, S80P
B5: VH1 + VL3 (antibody, V domains shown)
VH: B4 VH with A16S, M70I, R72A, T74K, V79A
VL: B3 VL with M4L, V13L, E70D, Q79E, S80P
B6: VH1 + VL4 (antibody, V domains shown)
VH: B4 VH with A16S, M70I, R72A, T74K, V79A
VL: AIQLTQSPSSLSASVGDRVTITCRASQSIGTSIHWYQQKPGKAPKLLIYYASESISGVPSRFSGSGSGTDFTLTISSLQPEDFATYYCQQSNNWPLTFGGGTKVEIK
B7: VH5 + VL3 (antibody, human IgG1, kappa, V domains shown)
VH: EVQLVQSGAEVKKPGESLKISCKGSGFTFNYFWIEWVRQMPGKGLEWMGEILPGTGSTNYNEKFKGQVTISADKSISTAYLQWSSLKASDTAMYYCARYDYTSSMDYWGQGTLVTVSS
VL: EIVLTQSPATLSLSPGERATLSCRASESVQYSGTSLMHWYQQKPGQAPRLLIYGASNVETGIPARFSGSGSGTDFTLTISSLEPEDFAVYYCQQNWKVPWTFGQGTKVEIKR
notes: Full-length humanized IgG expressed in HEK293 and purified on protein A. Constant regions not specified; also called #23 (inferred from 5x5 numbering)

How the values were obtained:
[1] = target: T1, WT p58/p62 heterodimer; test: left panel, Absorbance against Concentration (nM). The panel does not name the target. The axis points to the ELISA on WT p58/p62 of the legend, while the legend's first sentence speaks of MFI on HCT116 cells.
[2] = target: T2, MUC1-ECD; test: SPR (Biacore), 1:1 fit; panel 'GO-702h'; analyte cell empty, antigen at 1.875-60 nM by the legend; same numbers as Table 7 prints for VH5 + VL3
[3] = target: T2, MUC1-ECD; test: SPR Biacore T200, antibody on chip, MUC1-ECD analyte, 1:1 fit

| Binder | EC50 [1] [nM] | Kd [2] [nM] | koff [2] [s⁻¹] | kon [2] [M⁻¹ s⁻¹] | Kd [3] [nM] | koff [3] [s⁻¹] | kon [3] [M⁻¹ s⁻¹] |
| --- | --- | --- | --- | --- | --- | --- | --- |
| B1 | 0.6 | – | – | – | – | – | – |
| B2 | – | 1.55 | 0.000844 | 545000 | – | – | – |
| B3 | – | – | – | – | 2.75 | 0.00125 | 455000 |
| B4 | – | – | – | – | 3.6 | 0.00145 | 404000 |
| B5 | – | – | – | – | 5.23 | 0.00222 | 425000 |
| B6 | – | – | – | – | 7.13 | 0.00315 | 442000 |
| B7 | – | – | – | – | 1.55 | 0.000844 | 545000 |
